Tests used:
[1] = biological target: endogenous FGF receptor of untransfected HEK293T cells (human (endogenous in HEK293T)) (UniProt P11362); assay: bioluminescent (NanoLuc) competition binding on living cells; untransfected HEK293T cells in suspension in a 96-well filtration plate; constant FGF2-Luc as tracer and various concentrations of wild-type or mutant FGF2 in serum-free DMEM plus 1% BSA and 5 μg/ml heparin, 20°C, 2–3 h
[2] = biological target: endogenous FGF receptor of untransfected HEK293T cells (human (endogenous in HEK293T)) (UniProt P11362)
[3] = biological target: human FGFR1 (transcript variant 2), overexpressed on HEK293T cells (human) (UniProt P11362); assay: bioluminescent (NanoLuc) competition binding on living cells; adherent HEK293T cells transiently overexpressing human FGFR1; constant FGF2-Luc as tracer and various concentrations of wild-type or mutant FGF2 in serum-free DMEM plus 1% BSA and 5 μg/ml heparin, 20°C, 2–3 h
[4] = biological target: endogenous FGF receptor of untransfected HEK293T cells (human (endogenous in HEK293T)) (UniProt P11362); assay: bioluminescent (NanoLuc) saturation binding on living cells; untransfected HEK293T cells in suspension in a 96-well filtration plate; various concentrations of FGF2-Luc in serum-free DMEM plus 1% BSA and 5 μg/ml heparin, 20°C, 2–3 h; nonspecific binding with 250 nM 6×His-FGF2; one-site model
[5] = biological target: human FGFR1 (transcript variant 2), overexpressed on HEK293T cells (human) (UniProt P11362); assay: bioluminescent (NanoLuc) saturation binding on living cells; adherent HEK293T cells transiently overexpressing human FGFR1 in 96-well plates; various concentrations of FGF2-Luc in serum-free DMEM plus 1% BSA and 5 μg/ml heparin, 20°C, 2–3 h; nonspecific binding with 250 nM 6×His-FGF2; one-site model

| IC50 [1] | EC50 of activation of a serum response element (SRE)-controlled NanoLuc reporter in HEK293T cells [2] | IC50 [3] | Kd [4] | Kd [5] | Substance |
| --- | --- | --- | --- | --- | --- |
| 10 nM | 0.794 nM | 5.88 nM |  |  | 6×His-[Y111A]FGF2 (ligand) |
|  |  |  | 0.025 nM | 0.161 nM | NanoLuc-conjugated FGF2 (FGF2-Luc) (ligand) |
| 5.4 nM | 0.309 nM | 3.45 nM |  |  | 6×His-[Y32A]FGF2 (ligand) |
| 0.081 nM | 0.058 nM | 0.65 nM |  |  | 6×His-FGF2 (ligand) |
|  | 0.1 nM |  |  |  | 6×His-[C95S]FGF2 (ligand) |

From publication PMC4944982
